# PMC12098869, “An mRNA-display derived cyclic peptide scaffold reveals the substrate binding interactions of an N-terminal cysteine oxidase” (Nature Communications, 2025)
# Changes are numbered by the printed parent chain.
# B1: RGS5_(2-15), synthetic peptide corresponding to the methionine excised N-terminus of RGS5, residues 2 to 15 (peptide, UniProt O15539 2-15, looked up)
# peptide: CKGLAALPHSCLER
# notes: Regulator of G-protein signalling 5 (RGS5), residues 2 to 15, N-terminal Cys; also called RGS5 peptide; source: synthetic peptide
# B2: IL32_(2-15), synthetic peptide corresponding to the methionine excised N-terminus of IL32, residues 2-15 (peptide, UniProt P24001 2-15, looked up)
# peptide: CFPKVLSDDMKKLK
# notes: Interleukin 32 (IL32), residues 2-15, N-terminal Cys; also called IL32 peptide; source: synthetic peptide
# Columns and labels:
# Conditions in all cases: both partners purified
# [1] = biological target: T1, ADO-F256A, biotinylated (pQE80L-Navi-ADO) (human, UniProt Q96SZ5 1-270, F256A, biotin on the Avi tag); experiment: SPR; single-cycle kinetics (SCK), 1:1 binding model; biotinylated ADO or variant immobilised on a Biotin CAP chip, peptide injected at 25.6, 64, 160, 400, 1000 nM; 4 °C; 20 mM HEPES pH 7.5, 500 mM NaCl, 10 mM DTT, 0.1% (v/v) tween-20; 50 μL/minute
# T1 construct: Tag as in Dm1; source: E. coli Rosetta2(DE3), purified (Ni-NTA, SEC); not shown: Avi tag, N-terminal, kept; His6, N-terminal, kept
# T1 sequence (looked up): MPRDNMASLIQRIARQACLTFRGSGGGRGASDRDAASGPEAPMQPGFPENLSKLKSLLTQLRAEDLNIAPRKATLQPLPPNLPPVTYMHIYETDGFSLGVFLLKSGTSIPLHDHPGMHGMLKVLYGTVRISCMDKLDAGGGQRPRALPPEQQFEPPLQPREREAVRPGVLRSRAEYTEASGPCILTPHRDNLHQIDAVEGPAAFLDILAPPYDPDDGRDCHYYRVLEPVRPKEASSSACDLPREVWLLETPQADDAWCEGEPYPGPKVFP
# [2] = biological target: T2, ADO-D206E, biotinylated (pQE80L-Navi-ADO) (human, UniProt Q96SZ5 1-270, D206E, biotin on the Avi tag); experiment: as above
# T2 construct: Tag as in Dm1; source: E. coli Rosetta2(DE3), purified (Ni-NTA, SEC); not shown: Avi tag, N-terminal, kept; His6, N-terminal, kept
# T2 sequence (looked up): T1 sequence (looked up) with D206E, A256F
# [3] = biological target: T3, ADO-C220A, biotinylated (pQE80L-Navi-ADO) (human, UniProt Q96SZ5 1-270, C220A, biotin on the Avi tag); experiment: SPR; multi-cycle, equilibrium steady state affinity 1:1 binding model; biotinylated ADO or variant immobilised on a Biotin CAP chip (~2500-3000 RU), peptide injected; 4 °C; 20 mM HEPES pH 7.5, 500 mM NaCl, 10 mM DTT, 0.1% (v/v) tween-20; 50 μL/minute
# T3 construct: Tag as in Dm1; source: E. coli Rosetta2(DE3), purified (Ni-NTA, SEC); not shown: Avi tag, N-terminal, kept; His6, N-terminal, kept
# T3 sequence (looked up): T1 sequence (looked up) with C220A, A256F
# Procedure, shortened: (§1)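 Biotinylated full-length human ADO (wild type or engineered forms) was made in E. coli with a His tag, then purified by nickel affinity and gel filtration. It was captured on a Biotin CAP chip at about 2500–3000 RU in a Biacore T200, and peptides were flowed over it. The run was at 4 °C in HEPES pH 7.5 buffer with 500 mM NaCl, DTT and tween-20, at 50 μL/minute. Kd came from a 1:1 steady-state fit of multi-cycle equilibrium responses.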
# [4] = biological target: T4, ADO-Y222A, biotinylated (pQE80L-Navi-ADO) (human, UniProt Q96SZ5 1-270, Y222A, biotin on the Avi tag); experiment: as above
# T4 construct: Tag as in Dm1; source: E. coli Rosetta2(DE3), purified (Ni-NTA, SEC); not shown: Avi tag, N-terminal, kept; His6, N-terminal, kept
# T4 sequence (looked up): T1 sequence (looked up) with Y222A, A256F
# Procedure, shortened: as §1
# [5] = biological target: T5, ADO-I109A, biotinylated (pQE80L-Navi-ADO) (human, UniProt Q96SZ5 1-270, I109A, biotin on the Avi tag); experiment: as above
# T5 construct: Tag as in Dm1; source: E. coli Rosetta2(DE3), purified (Ni-NTA, SEC); not shown: Avi tag, N-terminal, kept; His6, N-terminal, kept
# T5 sequence (looked up): T1 sequence (looked up) with I109A, A256F
# Procedure, shortened: as §1
# [6] = biological target: T2, ADO-D206E, biotinylated …; experiment: as above
# Procedure, shortened: as §1
Binder,Kd [1] [µM],Kd [2] [µM],Kd [3] [µM],Kd [4] [µM],Kd [5] [µM],Kd [6] [µM]
B1,0.73,1.1,1.1,4.7,1.3,–
B2,–,–,1.3,1,16,1.3
